The results in this text go back to US20120177571A1, “PANCREATIC ENDOCRINE CELL INDICATING AGENT AND UTILIZATION OF SAME” (RIKEN, priority 2009, published 2012).

This data set has as its system pancreatic beta cells. Conditions: in vivo, 70 mg/kg. The method, then: 70 mg of Streptozotocin (STZ), which is selectively toxic to the pancreatic beta cells, was intraperitoneally administered to a rat per kilogram of the weight of the rat. Thus, a diabetic rat whose pancreatic beta cells were damaged was prepared. Next, ^68Ga-DOTA-octreotide (PET probe) was intravenously administered to the model rat in accordance with the method in Example 1. Next, in accordance with the method in Example 1, the abdomen of the model rat was scanned with the use of a PET and image reconstruction was performed. […] Further, as in Example 1, organs etc. were removed from the model rat after the scan, and radioactivity in each of the organs etc. was quantified.

In the case of `C[C@@H](O)[C@@H]1NC(=O)[C@H](CCCCN)NC(=O)[C@@H](Cc2c[nH]c3ccccc23)NC(=O)[C@H](Cc2ccccc2)NC(=O)[C@@H](NC(=O)[C@@H](Cc2ccccc2)NC(=O)CN2CCN(CC(=O)O)CCN(CC(=O)O)CCN(CC(=O)O)CC2)CSSC[C@@H](C(=O)N[C@H](CO)[C@@H](C)O)NC1=O` [^68Ga-DOTA-octreotide, metal not drawn], the “accumulation of the PET probe in kidney and liver (PET image), diabetic model rat” value is recorded as “observed”.
